Conditions: Homo sapiens; pH 2.7; Thermal; DSC; glycine-HCl 0.05 M; reversible: yes; whole UniProt chain shown

B1: Lysozyme C wild type, P61626 (protein)
chain: MKALIVLGLVLLSVTVQGKVFERCELARTLKRLGMDGYRGISLANWMCLAKWESGYNTRATNYNAGDRSTDYGIFQINSRYWCNDGKTPGAVNACHLSCSALLQDNIADAVACAKRVVRDPQGIRAWVAWRNRCQNRDVRQYVQGCGV
  Tm: 64.9 °C
  heat capacity change of unfolding: 1.58 kcal/mol/K
  unfolding enthalpy (calorimetric): 114 kcal/mol

From FireProtDB (doi:10.1021/bi0015717)
